According to article PMC9587256, “The retaining β-Kdo glycosyltransferase WbbB uses a double-displacement mechanism with an intermediate adduct rearrangement step” (Nature Communications, 2022):

Key:
[1] = target: T1, WbbBGT99 (Klebsiella terrigena, UniProt Q6U8B0); assay: native MS and pepsin MS/MS after NaBH4 reduction of the enzyme-Kdo adduct; assay type: biochemical; conditions: covalent; Kdo transferred to Asp232; donor generated in situ from CTP, Kdo and KdsB; Mg; 5 min then NaBH4, room temperature
T1 construct: gene wbbB; WbbBGT99-His6 in pET28a, expressed in E. coli BL21(DE3) or ClearColi BL21(DE3); dimer in native MS
T1 sequence (Q6U8B0 entry or part of it): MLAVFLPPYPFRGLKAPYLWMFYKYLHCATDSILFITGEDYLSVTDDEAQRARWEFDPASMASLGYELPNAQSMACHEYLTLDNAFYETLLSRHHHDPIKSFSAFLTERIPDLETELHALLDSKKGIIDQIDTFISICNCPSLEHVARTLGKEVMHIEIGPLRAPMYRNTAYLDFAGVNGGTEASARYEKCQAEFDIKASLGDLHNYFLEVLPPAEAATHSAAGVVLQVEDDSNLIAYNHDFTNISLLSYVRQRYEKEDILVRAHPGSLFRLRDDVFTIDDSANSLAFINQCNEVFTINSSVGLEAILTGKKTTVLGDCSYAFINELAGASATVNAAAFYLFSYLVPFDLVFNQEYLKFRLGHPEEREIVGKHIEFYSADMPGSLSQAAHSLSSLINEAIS

[2] = target: the molecule itself; assay: native MS; nanoESI, positive mode, UHMR Orbitrap; aqueous ammonium acetate 200 mM, pH 7, 25 °C; +21 charge state of the dimer; before or after reaction with the CMP-Kdo reaction mix

Row | Molecule | native MS and pepsin MS/MS after NaBH4 reduction of the enzyme-Kdo adduct [1] | stoichiometry N [2]
1 | Nc1ccn([C@@H]2O[C@H](COP(=O)(O)O[C@@]3(C(=O)O)C[C@@H](O)[C@@H](O)[C@@H]([C@H](O)CO)O3)[C@@H](O)[C@H]2O)c(=O)n1 [CMP-β-Kdo] | Asp232 is the sole residue that has been converted to homoserine | 
2 | WbbB_(GT99)-E158Q (domain or fragment, source: ClearColi BL21 (DE3) E. coli, purified (IMAC, desalting)) LAVFLPPYPFRGLKAPYLWMFYKYLHCATDSILFITGEDYLSVTDDEAQRARWEFDPASMASLGYELPNAQSMACHEYLTLDNAFYETLLSRHHHDPIKSFSAFLTERIPDLETELHALLDSKKGIIDQIDTFISICNCPSLEHVARTLGKEVMHIQIGPLRAPMYRNTAYLDFAGVNGGTEASARYEKCQAEFDIKASLGDLHNYFLEVLPPAEAATHSAAGVVLQVEDDSNLIAYNHDFTNISLLSYVRQRYEKEDILVRAHPGSLFRLRDDVFTIDDSANSLAFINQCNEVFTINSSVGLEAILTGKKTTVLGDCSYAFINELAGASATVNAAAFYLFSYLVPFDLVFNQEYLKFRLGHPEEREIVGKHIEFYSADMPGSLSQAAHSLSSLINEAIS |  | 2
3 | WbbB_(GT99)-D232C (domain or fragment, source: ClearColi BL21 (DE3) E. coli, purified (IMAC, desalting), then reacted with the CMP-β-Kdo reaction mix) LAVFLPPYPFRGLKAPYLWMFYKYLHCATDSILFITGEDYLSVTDDEAQRARWEFDPASMASLGYELPNAQSMACHEYLTLDNAFYETLLSRHHHDPIKSFSAFLTERIPDLETELHALLDSKKGIIDQIDTFISICNCPSLEHVARTLGKEVMHIEIGPLRAPMYRNTAYLDFAGVNGGTEASARYEKCQAEFDIKASLGDLHNYFLEVLPPAEAATHSAAGVVLQVEDCSNLIAYNHDFTNISLLSYVRQRYEKEDILVRAHPGSLFRLRDDVFTIDDSANSLAFINQCNEVFTINSSVGLEAILTGKKTTVLGDCSYAFINELAGASATVNAAAFYLFSYLVPFDLVFNQEYLKFRLGHPEEREIVGKHIEFYSADMPGSLSQAAHSLSSLINEAIS |  | 2
4 | WbbB_(GT99)-D232N (domain or fragment, Kdo modified in ~8% after the CMP-β-Kdo reaction mix; N-terminal methionine removed with variable efficiency, source: ClearColi BL21 (DE3) E. coli, purified (IMAC, desalting), then reacted with the CMP-β-Kdo reaction mix) LAVFLPPYPFRGLKAPYLWMFYKYLHCATDSILFITGEDYLSVTDDEAQRARWEFDPASMASLGYELPNAQSMACHEYLTLDNAFYETLLSRHHHDPIKSFSAFLTERIPDLETELHALLDSKKGIIDQIDTFISICNCPSLEHVARTLGKEVMHIEIGPLRAPMYRNTAYLDFAGVNGGTEASARYEKCQAEFDIKASLGDLHNYFLEVLPPAEAATHSAAGVVLQVEDNSNLIAYNHDFTNISLLSYVRQRYEKEDILVRAHPGSLFRLRDDVFTIDDSANSLAFINQCNEVFTINSSVGLEAILTGKKTTVLGDCSYAFINELAGASATVNAAAFYLFSYLVPFDLVFNQEYLKFRLGHPEEREIVGKHIEFYSADMPGSLSQAAHSLSSLINEAIS |  | 2
